Assay [1] concerns the target T1, alpha subunit of the human FcεRI receptor expressed on cells (human, UniProt P12319 26-257).
T1 sequence (looked up): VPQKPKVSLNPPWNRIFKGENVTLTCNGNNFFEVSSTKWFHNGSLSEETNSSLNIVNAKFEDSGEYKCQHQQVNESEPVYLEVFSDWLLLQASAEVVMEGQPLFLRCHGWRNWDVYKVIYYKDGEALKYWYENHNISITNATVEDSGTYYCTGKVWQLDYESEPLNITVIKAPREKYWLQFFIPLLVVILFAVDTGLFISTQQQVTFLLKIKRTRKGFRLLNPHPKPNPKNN
Put plainly: cell-based or functional assay.

Assay [2] has as its target alpha subunit of the human FcεRI receptor expressed on cells (human) (UniProt P12319). Put plainly: IgE inhibition assay (Table 9).
For assay [3], the target named is T2, extracellular domain of the alpha subunit of the human FcεRI (aa 1-176), baculovirus-derived (human, UniProt P12319 26-201).
T2 construct: range 1-176; also called soluble FcεRI; baculovirus-derived FcεRI
T2 sequence (looked up): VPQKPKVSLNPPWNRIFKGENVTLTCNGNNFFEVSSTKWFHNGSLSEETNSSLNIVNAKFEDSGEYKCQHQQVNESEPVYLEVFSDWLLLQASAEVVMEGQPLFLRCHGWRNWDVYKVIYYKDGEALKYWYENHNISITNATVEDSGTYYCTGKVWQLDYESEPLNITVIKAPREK
Put plainly: competitive phage ELISA: peptide-phage with soluble FcεRI on FcεRI-coated plate. The procedure:
Phage ELISA assays were carried out as described (Lowman, 1998, supra), using Nunc Maxisorp™ plates coated with a 2 μg/mL solution of baculovirus-derived FcεRI. Peptide-phage were pre-incubated for 5–10 min with serial dilutions of receptor, then added to the receptor-coated plate. After incubation for 1 h at room temperature, the plates were washed and an anti-phage HRP-conjugated antibody (Pharmacia) was added. After further incubation for 20 min, plates were again washed and developed using the substrate OPD (Sigma). Optical density at 492 nm was read and plotted as a function of FcεRI concentration to determine an $IC50$ of inhibition by each peptide-phage variant.
For orientation: ELISA stands for enzyme-linked immunosorbent assay.

Assay [4] has as its target T3, FcεRI-IgG (UniProt P12319 26-205).
T3 construct: extracellular domain; Produced from CHO cells (Genentech); also called FcεRI-Fc; bivalent fusion protein of the extracellular domain of FcεRI and the Fc domain of IgG; not shown: Fc domain of IgG
T3 sequence (looked up): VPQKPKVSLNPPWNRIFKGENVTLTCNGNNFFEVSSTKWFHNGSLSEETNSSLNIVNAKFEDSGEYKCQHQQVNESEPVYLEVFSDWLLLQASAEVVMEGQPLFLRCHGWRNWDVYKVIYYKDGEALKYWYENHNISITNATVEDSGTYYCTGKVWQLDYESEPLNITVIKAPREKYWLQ
Put plainly: competitive phage ELISA: g3 peptide-phage on immobilized FcεRI-IgG, soluble FcεRI-IgG titrated. How it is done: (§1) This oligonucleotide was annealed with a g3 single stranded DNA phagemid template. The mutagenesis reaction was transformed into XL-1 Blue *E. coli* and plated on LB-carb+ agar plates. Individual colonies were propagated in 5 mL of 2YT broth, tetracycline, carbenicillin and VCSM13 helper phage (Stratagene). Single stranded DNA was isolated from the purified phage particles and sequenced to confirm the insertion of the phage peptide sequence. 25 mL preparations of g3 phage clones were propagated overnight and purified by PEG precipitation. After resuspension of the phage pellet in 1.0 mL of PBS, it was serially diluted 1/3 and incubated with immobilized FcεRI-IgG 2 ug/mL in a 96 well Maxisorp microtiter plate for 1 hour at room temperature. The wells were washed 10× with PBST then incubated with 100 uL of anti M13 phage HRP as described above. An OD(492) value corresponding to less than 50% binding was selected and the purified phage clones were diluted to yield this normalized level of signal. […] The mixture was then transferred to 96 well microtiter dishes containing immobilized FcεRI-IgG. After a 1-hour incubation period, the plates were washed 10 times, incubated with anti M13-HRP conjugated antibody and developed with OPD as described above.
(§2) In addition, stepwise N-terminal and C-terminal truncations of the peptide sequence were constructed. All constructs were made by designing oligonucleotides corresponding to the desired substitution or truncation, with an additional 18 bp of DNA overlapping the peptide or g3 phage DNA sequence. The phage clones were propagated overnight following infection in XL-1 Blue *E. coli*. Purified phage preparations were titered and assayed for binding to immobilized receptor. FcεRI-IgG competition assays were performed as described above.

Assay [5] concerns the target T3, FcεRI-IgG. Description: competitive phage ELISA; relative to g3c.42. How it is done: as §1, §2
For assay [6], the target named is T1, alpha subunit of the human FcεRI …. Description: inhibition of 125I-IgE binding to CHO cells expressing human FcεRI alpha. How it is done: To determine the ability of peptides to inhibit IgE binding to FcεRI, a cell-based binding assay was used with radiolabeled IgE. Chinese hamster ovary cells expressing the alpha subunit of the human FcεRI receptor were cultured overnight in Falcon 96 well microtiter plates at a concentration of 5 ×10^4 cells per well. The following day the cells were rinsed three times with PBS and then once with F12/DMEM. Peptide stocks were reconstituted in 100 mM Hepes buffered water, pH 7.2, at a concentration of 5 mg/mL. Working concentrations of the peptide were diluted in assay buffer (see below). 75 uL of a desired concentration of peptide was added to the top row of a separate 96 well microtiter plate and serially diluted 1:3 in 50 uL of the assay buffer (F12/DMEM, 1% BSA, 0.05% NaN_3 and 0.025 mM Hepes pH 7.2). Starting concentrations ranged from 50–500 uM. Next, 50 uL of the diluted peptide was transferred to the 96 microtiter well plate containing a monolayer of CHO FcεRI+ cells. […] Cells were
Alanine substitutions in IGE063 (SEQ ID NO:49) were used to assess sidechain contributions. The P9A (IGE070, SEQ ID NO:52) substitution had the largest impact with a >500× reduction in binding. […] Clearly the alanine substitutions at G8, P9, W10, G11 and W12 all had major impacts on binding FcεRI.

Assay [7] deals with T4, extracellular domain of the alpha subunit of the human FcεRI (aa 1-176), produced in baculovirus infected … (human, UniProt P12319 26-201, N-linked carbohydrate (NAG on Asn21 seen in the crystal); derivatised with PDEA for thiol coupling to the chip in the biosensor assay).
T4 construct: range 1-176; Residues 1-176 are probably counted without the signal peptide; also called FcεRIα; soluble FcεRI
T4 sequence (looked up): T2 sequence (looked up)
Put plainly: SPR biosensor (BIAcore), peptide over immobilized FcεRIα; Kd (apparent) calculated from kon and koff. How it is done:
*peptide is a dimer. SEQ ID NO: describes each monomer of the dimer. "ava" = amino-valeric acid Several peptides were also tested in a direct-binding assay using a surface plasmon resonance biosensor (Lofas & Johnsson, *J. Chem. Soc. Commun.* 21, 1526–1528 (1990)). FcεRIα, produced in baculovirus infected insect cells, was immobilized by the surface thiol method (BIAcore Methods Manual Supplement 5a, BIAcore, Inc., Piscataway, N.J.). Briefly, receptor was reacted with 2-(2-pyridinyldithio)ethaneamine hydrochloride (PDEA; Natake & Swaisgood, *J. Biochem.* 74, 77–86 (1973)), desalted into 10 mM sodium acetate (pH 4.8) and stored in aliquots at −80° C. Thawed PDEA-receptor was injected over carboxymethyl-dextran (B1 or CM5, BIAcore, Inc.) biosensor chips preactivated with N-ethyl-N'-(3-dimethylaminopropyl)-carbodiimide hydrochloride (EDC) and N-hydroxysuccinimide (NHS), cystamine, and DTT. […] Serial dilutions of peptide in running buffer (phosphate-buffered saline containing 0.05% Tween-20, 0.01% sodium azide) were injected over the immobilized receptor, and the net amount of peptide bound at steady-state was measured as the net change in response (RU) at a point just prior to termination of peptide injection, compared to a running-buffer baseline. […] In the case of IGE134 (SEQ ID NOS:), the value shown indicates the Kd calculated from the rate constants, $kon$ and $koff$. […]

Assay [8] has as its target T3, FcεRI-IgG. Put plainly: g3 phage ELISA on immobilized FcεRI-IgG.

Results on twelve molecules are retold here after patent publication US7101851 (dated 2006).

Bridges are numbered along the chain shown (N, C = ends). Where no end group is shown, it is not given here.

With NLPRCTEGPWGWVCM (disulfide 5-14 (inferred)) [peptide NLPRCTEGPWGWVCM (SEQ ID NO:27)], the “IC50 of inhibition of ragweed induced histamine release (RBL-48 cells, ragweed specific IgE)” value in assay [1] stood at 13000 nM.

B1: IGE143 (peptide)
peptide: VQCPHFCYVGGHALCADVCYVGR
modifications: disulfide (positions not given here); also: two intramolecular disulfide bonds, pairing not given here
Turning to B1, in assay [2], the fold loss in activity against its control peptide was over 100 fold.

B2: IGE120-phage (IVCPRLCYVGGKALCPDVCYV displayed as a fusion to g3p of bacteriophage M13) (peptide)
peptide: IVCPRLCYVGGKALCPDVCYVGGGSGGGGSGSGDY
notes: not shown: g3p of bacteriophage M13, continuing after residue 257 of the mature protein
In the case of B2, in assay [3], the “Relative IC50” value is 1 fold, relative to IGE120-phage.

B3: g3c.29 peptide-phage (peptide)
peptide: NLPRCTEGPWGWVCMAA
modifications: not fully specified (bridges); cysteine pairing not given here
notes: Monovalent g3p phage display; not shown: fused to M13 gene-3 protein (g3p) on phage
As usually defined, the IC50 is the concentration that gives 50% inhibition. Consider B3, for which the IC50 in assay [4] stood at 5 nM. For the same molecule, in assay [5], the “Relative (IC50) (fold weaker)” value came out at 1 fold. For the molecule NLPRCTEGPWGWVCMAAD (disulfide 5-14 (inferred), also called optimized peptide) [synthetic peptide NLPRCTEGPWGWVCMAAD (SEQ ID NO:18)], in assay [6], the IC50 turned out to be 1000 nM, the “fold improvement over the … (SEQ ID NO:1) peptide” value was over 160 fold and the “fold improvement over the … (SEQ ID NO:8) peptide” value came to 40 fold. Moreover, the “IC50 of inhibition of ragweed induced histamine release (RBL-48 cells, ragweed specific IgE)” value in assay [1] was found to be 10000 nM. As for ALCPAVCYV-NH2 (also: antiparallel disulfide-linked homodimer, interchain C3-C7' and C7-C3') [IGE089], in assay [1], the “IC50 of inhibition of ragweed induced histamine release (RBL-48 cells, 0.1 nM ragweed specific human IgE)” value was found to be 8000 nM.

In the case of VQCPHFCYELDYELCPDVCYV-NH2 (disulfide 7-15, 3-19, also called peptide) [IGE134], the Kd in assay [7] is 32 nM.

B4: g3c.31 peptide-phage (peptide)
peptide: NLPRCTEGPWGWVCMA
modifications: not fully specified (bridges); cysteine pairing not given here
notes: as for B3
B4 had a half-inhibitory concentration (IC50) in assay [4] of 6.1 nM. Further, in assay [5], the “Relative (IC50) (fold weaker)” value came to 1 fold.

B5: g3c.34 peptide-phage (peptide)
peptide: NLPRCTEGPWGWVCM
modifications: not fully specified; cysteine pairing not given here
notes: not shown: fused to M13 gene-3 protein (g3p) on phage
B5 registered an IC50 in assay [4] of 14.6 nM. Besides, the “Relative (IC50) (fold weaker)” value in assay [5] is 3 fold.

B6: g3c.17 peptide-phage (peptide)
peptide: RCTEGPWGWVCMAAD
modifications: not fully specified; cysteine pairing not given here
notes: as for B3
As to B6, the binding result in assay [8] was “no binding”.

B7: g3c.21 peptide-phage (peptide)
peptide: CTEGPWGWVCMAAD
modifications: not fully specified; cysteine pairing not given here
notes: as for B3
Consider B7, for which the binding result in assay [8] was “no binding”.

B8: g3c.1 peptide-phage (peptide)
peptide: LPRCTEGPWGWVCMAAD
modifications: not fully specified; cysteine pairing not given here
notes: as for B3
In turn, B8 returned an IC50 in assay [4] of 3 nM. Besides, the “Relative (IC50) (fold weaker)” value in assay [5] turned out to be 1 fold.
